A protein production outcome set (Wang et al. 2014)

Assay: label from the status in PepcDB records
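Also: failed if final PepcDB status was selected cloned or expressed and not failed if soluble or beyond.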

Row | Sequence | protein production
1 | MTQWASWKQAIVSLAMLVSFSLFGQQNVQTPPEVVQARFIGNETCIDCHQVEVEAWQGSHHDMAMRHADSESVLGNFDNQAVEHQGKANRFYRKGDEYWVNIQGPDGQWHDYKISYTFGWVPLQQYMVEFDDGRIQLIPFAWDSRSVEQGGQRWFHLYPDTTTTDEFYWTNTGQNWNFMCADCHSTNLKKNYDAQSNTYQTTWSEINVSCEACHGPASLHVEMAKQAKQNGMPIATANHYGFSRDLSAAVKEWVYKEGHSTLQPKDIVPTNQVQTCAQCHSRRTQLNEEADHVKGAFLDKYRLSLITPELYYHDGQIYDEDYVYGSFLQSAMAEKGVTCTNCHDPHSAQLKIPEEAVCAQCHVASDYLPENHTFHQANTEASKCTTCHMPETTYMQVDPRRDHSWHVPRPDLSKHINTPNVCTACHDDKDAKWADEQIGQWFPKSKYRNTQHFSVAFYADAIGHRGGSDALAYTAQDSSISDIIRASALERMAGNTGQNTLVALARAVKHENEMIRLGAVAGSAGYDFSDRWQILQPLLSDPVLSVRTEAAAALVSHYGEMNPLQRERIQKPLDEYMDIQRFNADRGFGRTNLANVYRSLGEASKAIELYQQAIDIEPYFENSYVNLADMYRRQGDEAKAVQILNAGMKAQPKSSSLPYSAGLALLRQGNSKQANQYLKQAAESAKDNAQYWYVYGLALEKSDVLEASKALNKAFEVGGDPRHLYAQCEVLARNYRQGGVAFAFEQCTKQLGAHAPEEVIQQLKATVTTKK | failed
2 | MVVLAVLLPVVFGALLLLGLPRALGVLGAGLSFLLNLYLFLTHPGGVAHAFQAPLLPGAGVYWAFGLDGLSALFFLTIALTVFLGALVARVEGRFLGLALLMEGLLLGLFAARDLLVFYVFFEAALIPALLMLHLYGGEGRTRALYTFVLFTLVGSLPMLAAVLGARLLSGSPTFLLEDLLAHPLQEEAAFWVFLGFALAFAIKTPLFPLHAWLPPFHQENHPSGLADALGTLYKVGVFAFFRFAIPLAPEGFAQAQGLLLFLAALSALYGAWVAFAAKDFKTLLAYAGLSHMGVAALGVFSGTPEGAMGGLYLLAASGVYTGGLFLLAGRLYERTGTLEIGRYRGLAQSAPGLAALALILFLAMVGLPGLSGFPGEFLTLLGAYKASPWLAALAFLSVIASAAYALTAFQKTFWEEGGSGVKDLAGAEWGFALLSVLALLLMGVFPGYFARGLHPLAEAFAKLLGGGA | failed
3 | AVPGEVRLQVKDLRSVGGSALNGVNMTLRAGQIYGIAGVGGNGQAELANALMGLPQATEGDIHLAPFGDLRNASAEQRRQLRIASIPADRYGAALAGSLSVAENFGIGNIHSGHYGSFWRLGYKRLKQDAQRAVESFDVQGVRSLDQKAALLSGGNAQKLVIAREFSRDPQLVLVHSPSRGLDVRATQAVHDRLRAARDAGAAVLLISEDLDEVLALADRIGVMNGGRIVAEFDHPADRQAIGKAMVSHD | failed
4 | MDIKEIDQSSVITPDGQRISFILITPVNMSVLSDEVVAGRISALANILTSIENLQILCLNASQSYEKNKEHLAAQMKTETNEVLAELDRKDIEYLDDIRISMATGREFAFAVRFKKNIGRPQQEQTLKRLLLILLEAGFTARIAEEQELKGILAIYFAQDIYNDYWPDFDGEEILSPAEAKQEKSFLELIAPSIIDFRRQRYYVCGNTQRTVWAVRGYPTTTKDQTIFRELGEKDGVTLHIYTRPVGSYETNKILERAERRNRHMLNNSSRIKEKVEAESNMQDVQLLIENMHRSKEPFLHCAVFIEMAAGNDKALELLQGDVAAILNRHKILYDKLFLQQKEGMISAMPTGQNLFENQFERVLPASSVANMFPFSYSGKTDPQGMYIGRDANGSNIIVNFDQRGQDKTNGHIIILGNSGEGKSFLLKILSCIFRQSRKNLYILDPENEYKELTEALGGTYMDMMTGKYIINPLEPRLWNQEPVSELESPDTPKAFFKPLRINQHIAFLRDFFSAYKPFPTEQLDTLEIMLELLYKEFHITEETDYSRLRSSDYPILTDLYKLMTRELENYEEKAETGLVVYRKETLRELCLGLHGICTGAESVYFNGYTNIPNAKHIDFGVKDMLSTNQSLSNAMYFNILSFMSHKFLTEGDTNICCDELHELLKNRIAISYLLSFIKRGRKRGSNVILASQNVSDFFLPEIVEYTKPLLSIPTHRFLFYPGSCDTEEYKRVLGVSDSEYRVIQNPNRGHCLYSCGNERYHLHVIAPKYKKALFGTAGGALEHHHHHH | failed
5 | MNKTFVGFIFLLFLVGGVVSCQRSSSPYPYSLRYADSLMEISPERTLAYLRKLDVSTYSAGDRAYFSLLFTQATDKNMLSLLPCDSLIDTALDYYIKKDGVNWAKAWLYKGRIQKKMNMTEQALKSCFTALQGVEGNTGEELKLKGMLYEDMGSIYLHQSLYQKAFDAFYRSYQCDSLLNDHRLVMYPLSNMGWVRVIQGKTVEAFYYLNQSIQLALRLNDSAFVSDIYERMSLNCENVDSAFLYAHLSHQYLTKDGDSISLWLTFGDLYLDKQELDSAEYYLKRILDTADFKRKILASYSLAEVEKIRGNYQRAFEYQSYYGDNIDSIFLLNKASDIERLAYKYDSEAKVVKEKEKQRFLIQQLCYGGVLFLLVIVVIFQRVYRRRQIARLLYEQRITYLNEKTALSQLQIERLEVQISALKQSGMEREQEIDLKQAELCCVIDEKARLRNCLFMETSIFKHIRELSTQPRLGQNGTKGSPKVLLMKEQEQLKNILFGIYDDYIRYLKGTYPKITDNDCIYCCLKLCEFDDQTIAYCFGNVSKQIVAQRRLRLKKKMAEAN | failed
6 | MTVSQDILLTDHFKQWIEIFKKGKVSDGTYRKYLYTLSVLKKHFSTATIKTMNRVKYQEMLNEFAEGHSDSSVKQINVHVRASLENLLDDFIIKNDFTKGAISLEHHHHHH | not failed
7 | MTNQRTMVVGYDGSEESNLAVQWAAKHAILRDCSLHVVHCSLWVLLSHNRGPVPGVADSGLERAAQKVLEEGMALAKETVPDLEVRTTLLHGMPRDHLAHVSVGAEMLVLGSRGLGGFMGLLVGSVSLEMAATAECPVVVIRADDHPEGPVLLAVDDAGSPAALEDACDFAAATGADLMIVHVLHEPVGYRRLREPVEAYPEAEALLDSVLSQARHKAPGIAVTGELLVDASFSKAIVKASQGARITVLGTKGHGLIKGTIGSTAHAVLHHAHSPVLVSRRRATSEVA | failed
8 | MGDPAPARSLDDIDLSALRDPAGIFELVEVVGNGTYGQVYKGRHVKTGQLAAIKVMDVTEDEEEEIKQEINMLKKYSHHRNIATYYGAFIKKSPPGNDDQLWLVMEFCGAGSVTDLVKNTKGNALKEDCIAYICREILRGLAHLHAHKVIHRDIKGQNVLLTENAEVKLVDFGVSAQLDRTVGRRNTFIGTPYWMAPEVIACDENPDATYDYRSDIWSLGITAIEMAEGAPPLCDMHPMRALFLIPRNPPPRLKSKKWSKKFIDFIDTCLIKTYLSRPPTEQLLKFPFIRDQPTERQVRIQLKDHIDRSRKKRGEKEETEYEYSGSEEEDDSHGEEGEPSSIMNVPGESTLRREFLRLQQENKSNSEALKQQQQLQQQQQRDPEAHIKHLLHQRQRRIEEQKEERRRVEEQQRREREQRKLQEKEQQRRLEDMQALRREEERRQAEREQEYKRKQLEEQRQSERLQRQLQQEHAYLKSLQQQQQQQQLQKQQQQQLLPGDRKPLYHYGRGMNPADKPAWAREVEERTRMNKQQNSPLAKSKPGSTGPEPPIPQASPGPPGPLSQTPPMQRPVEPQEGPHKSLVAHRVPLKPYAAPVPRSQSLQDQPTRNLAAFPASHDPDPAIPAPTATPSARGAVIRQNSDPTSEGPGPSPNPPAWVRPDNEAPPKVPQRTSSIATALNTSGAGGSRPAQAVRARPRSNSAWQIYLQRRAERGTPKPPGPPAQPPGPPNASSNPDLRRSDPGWERSDSVLPASHGHLPQAGSLERNRVGVSSKPDSSPVLSPGNKAKPDDHRSRPGRPADFVLLKERTLDEAPRPPKKAMDYSSSSEEVESSEDDEEEGEGGPAEGSRDTPGGRSDGDTDSVSTMVVHDVEEITGTQPPYGGGTMVVQRTPEEERNLLHADSNGYTNLPDVVQPSHSPTENSKGQSPPSKDGSGDYQSRGLVKAPGKSSFTMFVDLGIYQPGGSGDSIPITALVGGEGTRLDQLQYDVRKGSVVNVNPTNTRAHSETPEIRKYKKRFNSEILCAALWGVNLLVGTENGLMLLDRSGQGKVYGLIGRRRFQQMDVLEGLNLLITISGKRNKLRVYYLSWLRNKILHNDPEVEKKQGWTTVGDMEGCGHYRVVKYERIKFLVIALKSSVEVYAWAPKPYHKFMAFKSFADLPHRPLLVDLTVEEGQRLKVIYGSSAGFHAVDVDSGNSYDIYIPVHIQSQITPHAIIFLPNTDGMEMLLCYEDEGVYVNTYGRIIKDVVLQWGEMPTSVAYICSNQIMGWGEKAIEIRSVETGHLDGVFMHKRAQRLKFLCERNDKVFFASVRSGGSSQVYFMTLNRNCIMNW | failed
9 | MSEQQHVRADGTVTFLPHRLNRHPVVVRGLTADELWICCGLSGAAGLLVGAPLSWVFRTIAIAPTFVVLGVALGVFIGGGILRRLKRGRPDTWLYRQLQWRIATGHPLMAGWVGGHVLISRSGFWSTRRSMR | failed
10 | MGISNIKQLYSKWKSLQPLKPEDLKRWNDKFKLEFNYNSNHLEGNTLTYGQTKLLLMFGETSGNASLKDYEEMKAHNVGLEMIKQEAQDKERPLTESFIRELNRTILVQDYWKNAKTPDGQDIRMQIKVGEYKSRPNSVLTATGEVFSYASPEETPAFMTSLVDWYNLEADKGILTPVELAALLHYRYIRIHPFEDGNGRIARLLVNFVLHRYGYPMIVIHSEDKSNYLNILHQCDVEAGLTPSDGANATLNDILPFVNYLSSCLIRSLTLAIKAAKGESIEEEGDFDKK | not failed
11 | MKLIGITGMPGSGKSAITKLAEKYKIVVVSMGDVVRYETLKQGMPLNPENVGNTAVKLREIYGKEAIAVPCLNYVNEKYNNEDFVIIEGIRSIYEVNYIKKHAELDIIAIHSSPKTRFERLSGRNREDDSNDWNTFVERDERELNFSIGRVISLADYMVVNEGNYMDFVNDLENTFKKIINVN | not failed
12 | MNSQPRHFAPLARLLHWLMALLIIAMLFIGAGMVASVSARHEWLIHLHKPLGIAILLLVLVRLWVRFYTRQPPLPADLPGWQVLAAKASHVLLYALMLSLPLLGWGMISAAGDPVMLGSSLQLPAILPANAQLFAVLRKAHGYLAYLLFFTVLLHLAAALFHGWVRRDGVLQSMLRGRG | not failed
13 | MMFFQVHPHLTDLVIRTLQATWQQFPWLGQEDIALTLLVYPPPIPVNTGGALTAAEFWQYLIPGAHYRGDVPMYPASVVKLFYLVACHEWLHSGMLQPDAELERAMRDMIVDSSNDATSLVVDMLTGTTSGPVLPPEPFRTWQYQRNIVNRYFQSLGWPELTQINVNQKTWCEGPYGREQEFVGRDRQNANRLTTNATAKLIHSIVGGVAVSASASQGMMELMERSLDPELLAQDPENQVQGFLGEGLPPGAKLWSKAGLTSWVRHDAAYIELPDRCPYTLVVFMENSTASKNTEVLPFISRQIASGIPTLEGAGVL | failed
14 | MRMKPLKRSLPLLLALLLAACAGVKPPAAQPAQPETKPAAESGPDEAKLPKVALSPEILYGVLAGEIAARRGAAGSAGLTYLDLARETRDPRMAQRAAEFCLLSGQLKPATEALQLWIELDPESLPAREQLFITLMRGGKLAESKPLIEELLRLEPQRAPAIFVQLARLSARQDGGSAPSYRLVQELADRYPDLPEARFAVLAAAADNNDQAAVDRELNRLAGIAPKWDLPVAWQVDRLRRKDINEAADFLQRELARRPDAGLELQIAYPRLLVGAKRFPEARSAFEALLKTHPDNPDLLYATGLLAYQMRDLKTADDRLQRALARQYPEQDFVRYTLGQIAEDDRDAERAGNWYRQVGPGQQYLPAQSRLAMLEAADGRLDEALSRLSGLGGTDQEKVSLALLQSQLAREAKQPRRAYDLLTQALQRQPRSSELLYERSLVSDMLGNAGNAERDLRLILKDKPGDAQALNALGYTLANRTSRYQEAYGYIEKALKAEPDNPVIQDSMGWVQYKLGRLDAARKALEKAYAAMQDPEVGAHLGEVLWKQGRRDEALAVWRKELAQHPGHEVIAETMRRLGAKP | failed
15 | MMTTAEQIPFQLILNSGNARSFAMEALQFAKQGKMAEADEAMVKAKEAINEAHHFQTELIQSEARGEKTEISVLLIHAQDHLMNAITVKELAAEFIDLYKKLEAKGE | not failed
